Data reported in article PMC6249252, “COMP and TSP-4 interact specifically with the novel GXKGHR motif only found in fibrillar collagens” (Scientific Reports, 2018).

Biological target: collagen type XI (UniProt P12107 36-1563; P13942 28-1736, hydroxyproline/hydroxylysine expected in native collagen; preparation and processing not stated; alpha3(XI) taken as COL2A1 product)
Test: ELISA; collagen model peptide or collagen XI coated; COMP or TSP-4 at indicated concentrations in TBS-T with 0.25% BSA, 1 h, room temperature; detected with anti-COMP or anti-TSP-4 antibody; four-parameter logistic fit; apparent KD
Conditions: both partners purified

Kd: 20 nM
B1: cartilage oligomeric matrix protein (COMP), wild type, pentameric (natural protein)
chain: not shown
notes: cartilage oligomeric matrix protein (COMP, TSP-5); residue numbers Asp593-Asp595 as in PDB 3FBY; also called COMP wt; TSP-5; source: HEK293 (EBNA), pCEP vector, serum-free supernatant, purified (Strep-Tactin)
